{"source": "the DeepSol protein solubility set", "data": [{"experiment": "soluble on expression in E. coli; label from the status in PepcDB or PDB records", "values": [{"sequence": "MGTVHARSMDSYPMYGRDLGVNTDDMEVMEAVQETKQEVLENKDVVVQHVNIEGLGRTKEDYLGYEISDVFTARNLVEVMRKSHEARQRLLRLGIFRDVEVVIDISEGADALPNGLDVTFEVTELKRLTGSYNTMVGNNEGSMVLGIKLPNMLGRGEKLTFQFSYGTKETSYGLSFFKPQSGYFERNFTVNLYKVTGQFPWSSLKETDRGVSTELSLPLWMTDHTLKWEGVWRELGCLARSASFAVREESGHTLKSALSHTMVVDTRNSAILPRKGALLRINQELAGYTGGDANFLKEDVELQLNKQFIWGSVLSASLWGGMIYPLGAQPTSIADRFYLGGPTSVRGFGMYSIGPQSEGDYLGGEAYWAGGLHLYTPLPFRSNKGGLADLFRTHFFLNAGNICNLNYGEGPRAHLQKLAECIRWSYGAGIILRLGNIARLELNYCFPMGVQSGDRICDGVQFGAGIRFL", "soluble on expression in E. coli": "soluble"}, {"sequence": "MAFWQSKTLTEMTSQEWESLCDGCGKCCLNKLIDDETEELYYTNAACLLLDHQTTSCQHYSDRFRYVPQCTVITAQNVHELTWLPDSCAYRRLAAGRALPSWHPLLTGSKDAMHLAGMSIQGKVVDERRVKDIEDHIVLWPLKDLD", "soluble on expression in E. coli": "soluble"}, {"sequence": "MAHHHHHHMNFLNDEILKKSCEIEKLQDRLLDYESKLLIYENNNEIKILKKNEDHLRKLLSKHIHRNEQLLNTTFLLQKSTLENNSLEKKIIELRAKSYRKDQEIKKLQETKSIRKSPSSNCSHNSQEYSMDLIDDLNEDNYNLKYYHNNSIVGDQENSVYTSKKSYDKNITIGSLADTEKRSIKIKNIIPHSHNNEDPVHFALCEYLNCFKKNNLSIKINKLDDNTYLLNDKKVVISFINGDLYVEDDASPIKLQDYLLKTVVR", "soluble on expression in E. coli": "soluble"}, {"sequence": "PIVGRIIHIENQQLNEYTGNYSSFENQRAQKMMLQQAMFEKQQKQMSHMQSYIDRFRYKASKARQAQSRIKALERMEKVLPAQFDNPFSFEFRQPAALPNPIMMMDDVSAGYGDNLILEKIRLNLVP", "soluble on expression in E. coli": "not soluble"}, {"sequence": "MKRQLILEDGSFFVGEAFGSLKETTGEVVFNTGMTGYQEILTDPSYCGQIVTMTYPLIGNYGINRDDFEAIRPHVHGFIVKEACVKPSNWRGELTLDEYLKEKDIPGLAGIDTRKLTRLIRQYGTLKGMICGLDVDPVEAAAKLRAMEWPRDQVRRVSTKSAYPSPGRGERIVLIDFGMKHGILRELNKRNCDVIVLPYNATAEEVLGWHPDGVMLSNGPGDPKDVPEAIEMIRGILGKVPLFGICLGHQLFALACGANTEKMKFGHRGSNHPVKDLRTGKVAITSQNHGYTVTHESLSGTRLEVTHIALNDGTVEGLRHLDVPAFTVQYHPEASPGPEDANPLFDEFLALIREFNKKGEVIHA", "soluble on expression in E. coli": "soluble"}, {"sequence": "MYIMKQSGWLELICGSMFSGKSEELIRRVKRATYAKQEVRVFKPVIDNRYSEAAVVSHNGTSMTSYAISSAADIWDHISESTDVVAVDEVQFFDQEIVEVLSSLADKGYRVIAAGLDMDFRGEPFGVVPNIMAIAESVTKLQAVCSVCGSPASRTQRLIDGKPASYDDPVILVGAAESYEARCRHHHEVPGKSKKLEHHHHHH", "soluble on expression in E. coli": "soluble"}, {"sequence": "MKQFLITGGTGMVGSQLVNKLKNRDVHITILTRSDKQSDDPKISYVNWSKDGWMSQVPDIDVVVNLAGATLNKRWTPSYKQLIMTSRIQSTQSLVDLFSQREHKPEVLFNASAMGYYPPSLYHTYTEKYQTHPFDFLSDVVYQWERFAKRFESFGTRVVLGRFSMILSNDGGALQTMKLPYKFFVGGKLGSGFQWYSWIHINDLVRAILFTIDNPNAKGPFNMAAPIAERQNLFGYTLARVMHRPHETWVPSFLMRLALGEMSTVVLDTQKVLPNKLDALGFTFNYSNLKIAFEDLIDALEHHHHHH", "soluble on expression in E. coli": "not soluble"}, {"sequence": "THMRCRVYYEDTDSEGVVYHANYLKYCERARSEFFFKQNVLPENEEGVFVIRSIKADFFTPASLGQVLEIRTQIKELRKVFVVLFQEIYCIQNASLEPMKPFKVFASEIKFGFVNRSTYSPIAIPKLFKELLNAI", "soluble on expression in E. coli": "soluble"}, {"sequence": "MQFQIGAQGDIADMLTMCNNFPGFEAPMRYMIENSHDVVTVFDGSPAVIVLDELVKADESSYLPFKMKKSYKKVDEIAAKMASEEIHFTIHLSSHSQKNVIQIFQSAYSDGYTEEDKKGKIPEGGRVKCAGTETGARSNVKCEEVAKEVNEYIDSNKDKFGDLKVESLGKADSFMKQKPRRNLFIRVPPLE", "soluble on expression in E. coli": "not soluble"}, {"sequence": "MFKHIISCLLLISATSALAAEKPTLTVYTYDSFAADWGPGPAIKQAFEAECDCQLKFVALEDGVSLLNRLRMEGKNSQADVILGLDNNLVQAAEQTGLFTPSQVDTRNLTLPEPWQNKTFVPYDYGYFAFVYNKEKLKNPPKSLHELISSKEPWKVIYQDPRTSTPGLGLMLWMQKVYGDQAPQAWQQLAQKTVTVTKGWSEAYGLFLKGEADLVLSYTTSPAYHLIAEKNNNYAAADFSEGHYLQVEVAGQLAASKQPELAQRFMQFIVTPAFQNHIPTGNWMYPVIKMDLPAGFETLAVPQTALQFDAKDVADNRSKWIQAWQSAVSR", "soluble on expression in E. coli": "not soluble"}, {"sequence": "MSQMSPGQARVVDPILSTHARGYRQSTLIGKKLFPVAPVAQYGGKILTFGKEAFRLYNTKRAPGANTKRIDFGYEGDPYSIVPSALEAKVPRELMRDASQVPGIDLGARSVNTVLRIMALAHEHECAQIALDPAKYNADHKVKLVGSARWTSPDSDPTKDVETAKEAIADSIGMEPNRLMLSRKALSACKYHPKLIERVKYTRAESITIDMLKALWEVEEIVVGTARVATGANDSFGDVWGPDVWLGYVSDNPDPSVEEPSFGYTYQIEGHPLVEVPYWDNNAKSWIYGVSDDNTPALSGMLAGYLIEDAGLPAALEHHHHHH", "soluble on expression in E. coli": "soluble"}, {"sequence": "MLLCAGRNETLKKAVPIGVGLIESAINLTRMCLKNPDTESLIFIGSAGSYSPEMELLSVFESVCGYQIEESFSHLNSYTPLDNFIHIETEEQALFERVRVNSSNYIHTSEMFAKKMVQKGVLLENMEFFSVLSVAKAFSLKAKGIFCVSNYVGLNAYQEFKENHAKVKQILENIIDSLII", "soluble on expression in E. coli": "soluble"}, {"sequence": "TSSLSYWQGEAFRRGFDSRGRFDDVLKILLLLDAAQKEGKALPVQEFRRHINMGYDELGELLEKLARHGYIYSGRQGWVLKTGADSIELNELFKLFVYRPLPVERDHVNQAVDAVMTPCLQTLNMTLAEFDAQAKKRQ", "soluble on expression in E. coli": "not soluble"}, {"sequence": "MNKTILALDTATEACSVALLHNGNITTLDELSPRNHTQRILPMVDELLSQANISIKQVDVLAFGRGPGSFTGVRVGVSVAQGLALGANLPVVAISNLLAMAQAAYQQLRANNVIALIDARMNEVYFAQYQRIGEHWHTIVEEQVCSPETAIAQMKINDNSVVVGTGWAAYPQFYVAKLPLSVSDISLPSAKDMLELALKAVENGELQTALDIEPIYLRNEVTWQKLPHKRLEHHHHHH", "soluble on expression in E. coli": "soluble"}, {"sequence": "MGSDKIHHHHHHMWGFPRAGSSPALGTSRKRRSFLRFFLEENGVKEIELFGTKVLSGTRREFLNAIEERIEKNIKTFVVTMNASILLKAIEDAGYRAIVNSADLVVPDGFGVVWAMKTLTGETTERLPGVEIMKHLCERSKEKGWKVYLLGTKREIVEKAKQVLERSGVRVVGCHDGFFSEKESPKIVEDVNRSSTDLLFVGMGVPRQEEWIYRNFPQLNVKLAMGVGGSIDVVSGKKKRAPEWVQRMNLEWLYRFFQSPLSKRKVPVQVSKFVFFVLREKLKNRN", "soluble on expression in E. coli": "not soluble"}, {"sequence": "MNIDTREITLEPADNARLLSLCGPFDDNIKQLERRLGIEINRRDNHFKLTGRPICVTAAADILRSLYVDTAPMRGQIQDIEPEQIHLAIKEARVLEQSAESVPEYGKAVNIKTKRGVIKPRTPNQAQYIANILDHDITFGVGPAGTGKTYLAVAAAVDALERQEIRRILLTRPAVEAGEKLGFLPGDLSQKVDPYLRPLYDALFEMLGFEKVEKLIERNVIEVAPLAYMRGRTLNDAFIILDESQNTTIEQMKMFLTRIGFNSKAVITGDVTQIDLPRNTKSGLRHAIEVLADVEEISFNFFHSEDVVRHPVVARIVNAYEAWEEAEQKRKAALAAERKREEQEQK", "soluble on expression in E. coli": "soluble"}]}]}
